From article PMC7708434 (Biochimica et biophysica acta. General subjects, 2020)
Read-outs that look alike come from different tables or passages of the source.

B1: 4-hydroxy-tetrahydrodipicolinate reductase (DapB) from Vibrio vulnificus strain CMCP6 (enzyme, UniProt Q8DEM0 1-269, looked up)
chain: MVRIAVAGAAGRMGRNLVKAAHHNPVAKVAAGSERPESSLVGVDLGELCGEGKFDVVVCDDLAKQIDQFDVIIDFTAPASTLNNLALCQQYGKSIVIGTTGFTEEQREQIDLVAQQVPVVMAPNYSVGVNLVFKLLEKAAKVMGDYCDIEIVEAHHRHKVDAPSGTAIGMGEAIAGAMGNKLSDVAVYAREGITGERTKDEIGFATIRAGDIVGEHTAMFADIGERVEITHKATDRMTFANGAVKAAVWLHEKPAGFYTMTDVLGLNDL
B2: 4-hydroxy-tetrahydrodipicolinate reductase (DapB) from Mycobacterium tuberculosis HKBS1 (enzyme)
chain: MRVGVLGAKGKVGATMVRAVAAADDLTLSAELDAGDPLSLLTDGNTEVVIDFTHPDVVMGNLEFLIDNGIHAVVGTTGFTAERFQQVESWLVAKPNTSVLIAPNFAIGAVLSMHFAKQAARFFDSAEVIELHHPHKADAPSGTAARTAKLIAEARKGLPPNPDATSTSLPGARGADVDGIPVHAVRLAGLVAHQEVLFGTEGETLTIRHDSLDRTSFVPGVLLAVRRIAERPGLTVGLEPLLDLH

How the values were obtained:
crystal structure [1] = target: the molecule itself; assay: crystal structure
crystal structure [2] = target: the molecule itself; assay: crystal structure; remark: listed apart in the source

Protein	stoichiometry N (crystal structure [1])	stoichiometry N (crystal structure [2])
B1	4	
B2		4
